According to PMC6882556, “Cryo-EM structure of the KvAP channel reveals a non-domain-swapped voltage sensor topology” (eLife, 2019):

Target: the molecule itself
Test: cryo-EM structure; KvAP(12-282) tetramer purified as a complex with 6E1 Fab; 20 mM Tris-HCl pH 8.0, 150 mM KCl, 0.06% digitonin; C4 symmetry applied; final map ~5.9 Å

B1: KvAP, voltage-gated K+ channel from Aeropyrum pernix (residues 12-282) (natural protein, UniProt Q9YDF8 25-295, looked up)
chain: GGRVRNIGDVMEHPLVELGVSYAALLSVIVVVVEYTMQLSGEYLVRLYLVDLILVIILWADYAYRAYKSGDPAGYVKKTLYEIPALVPAGLLALIEGHLAGLGLFRLVRLLRFLRILLIISRGSKFLSAIADAADKIRFYHLFGAVMLTVLYGAFAIYIVEYPDPNSSIKSVFDALWWAVVTATTVGYGDVVPATPIGKVIGIAVMLTGISALTLLIGTVSNMFQKILVGEPEPSCSPAKLAEMVSSMSEEEFEEFVRTLKNLRRLENSMK
notes: KvAP, voltage-gated potassium channel of Aeropyrum pernix, residues 12-282; In the cryo-EM sample the tetramer carried 6E1 Fab fragments on its voltage sensors; also called KvAP tetramer
stoichiometry N: 4
